Measured values from the supplement of paper PMC9732359.
± gives the uncertainty stated by the source.

Assay: protein stability index of a GFP-peptide fusion (yeast GPS) (PSI 1-4); higher = more stable; sorted into four equal gates, so the index is relative within each strain
How it was run: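 Yeast carrying a pooled library were grown to mid-log phase in leucine-free medium. Each library plasmid expresses Cherry and has a tiled 17-residue yeast protein peptide fused downstream of GFP. Cells were sorted into four equal gates by GFP/Cherry ratio, and plasmids from each gate were PCR-amplified, Illumina-sequenced and assigned to strains by barcode. Summing, across gates, the read frequency times the gate number gave each peptide's protein stability index.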

Sequence	protein stability index (doa10∆)	protein stability index (pdr5∆)	protein stability index (san1∆)	protein stability index (ubr1∆)
GGESAYFFQLQIRSADE [RPC11]	2.73 ± 0.06	2.88 ± 0.062	2.71 ± 0.06	3.22 ± 0.062
HIEGVVILKKNPDYREE [RPN1]	2.89 ± 0.086	3.07 ± 0.096	3.05 ± 0.079	3.07 ± 0.066
DPTKVTEFEFYLLEELE [SSN8]	3.19 ± 0.065	3.28 ± 0.058	3.21 ± 0.068	3.25 ± 0.049
MNGRSLTYAQQQLNKQR [SNF6]	3.28 ± 0.26	3.36 ± 0.14	3.02 ± 0.15	3.23 ± 0.15
RELLKSQVEDFTRIFLP [SIR3]	3.2 ± 0.053	3.1 ± 0.059	3.13 ± 0.053	3.33 ± 0.045
LITSSARKELPIFDYIH [SIR3]	2.16 ± 0.056	2.06 ± 0.061	1.92 ± 0.068	2.48 ± 0.048
AKIISKAPEQFIENFLT [YML103C/NUP188]	2.69 ± 0.17	2.94 ± 0.26	2.54 ± 0.2	2.89 ± 0.2
LPKIIQLQGPQWMNEMV [SOH1]	3.15 ± 0.088	3.29 ± 0.064	3.14 ± 0.066	3.06 ± 0.07
VAASIIPFPDHNQSPRN [RPB2]	2.37 ± 0.09	2.21 ± 0.076	2.33 ± 0.12	2.63 ± 0.078
LVLLNGRLRNKSHKQTI [RPP1]	2.65 ± 0.088	2.85 ± 0.059	2.98 ± 0.047	2.97 ± 0.061
KTNEESAKMILLSDPTI [PRP8]	2.77 ± 0.12	2.95 ± 0.16	2.94 ± 0.1	2.92 ± 0.042
RSQDQENPAFLPGTNNN [SEC65]	2.79 ± 0.082	2.75 ± 0.079	2.19 ± 0.063	2.8 ± 0.064
FASLRVLPDADVKLLHS [YJL039C/NUP192]	–	2.11 ± 0.1	1.54 ± 0.2	2.14 ± 0.11
VKLWEEDPDQEECSGRR [YGL100W/SEH1]	3.18 ± 0.084	3.08 ± 0.081	3.37 ± 0.04	3.37 ± 0.055
SLYIYYLIKLLGFEVKD [SIR2]	2.32 ± 0.12	2.13 ± 0.13	2.31 ± 0.079	2.27 ± 0.15
PIFNYIFTEKIYKSIFN [YJL039C/NUP192]	1.33 ± 0.034	1.46 ± 0.04	1.41 ± 0.074	1.16 ± 0.039
STGLKSASDALKGRVVE [RPS1A]	3.29 ± 0.078	3.31 ± 0.071	3.48 ± 0.044	3.37 ± 0.084
VVVSGKLRAARAKAMKF [RPS3]	–	–	–	3.28 ± 0.29
EVESSDTIDNVKSKIQD [RPS31]	3.11 ± 0.21	2.78 ± 0.17	3.12 ± 0.1	–
RRFKNGFQTGSASKASA [RPL37A]	2.99 ± 0.053	2.98 ± 0.056	3.06 ± 0.067	2.88 ± 0.043
TRKAARPQKLRASLVPG [RPL6A]	1.47 ± 0.21	1.5 ± 0.12	–	2 ± 0.12
NGFAPISEVMEDRNQRI [FAS1]	3.44 ± 0.093	3.3 ± 0.06	3.42 ± 0.05	3.31 ± 0.038
ANCQRQLTEFWTELCQR [NNF1]	3.09 ± 0.081	2.87 ± 0.08	3 ± 0.075	2.82 ± 0.099
DIGKEMSLRHFGHLMHY [RPN1]	1.26 ± 0.049	1.25 ± 0.041	1.23 ± 0.074	1.08 ± 0.037
NLSAFKIVYIAPLKALV [BRR2]	1.55 ± 0.054	1.54 ± 0.051	1.49 ± 0.12	1.56 ± 0.062
NTFKVLSKFFFFIFVFN [COB]	1.66 ± 0.078	1.41 ± 0.1	1.32 ± 0.2	1.29 ± 0.077
LSLDSDVKFPSNTTTQI [SMC3]	2.9 ± 0.25	3.37 ± 0.14	2.81 ± 0.15	3.32 ± 0.18

Sequence	protein stability index (doa10∆)	protein stability index (pdr5∆)	protein stability index (san1∆)	protein stability index (ubr1∆)
NIKTSEWDLYPQGFSSV [REC8]	2.91 ± 0.26	2.82 ± 0.2	–	–
RMLSFEDISKATHLPKD [RPN9]	2.95 ± 0.091	3.08 ± 0.08	3.15 ± 0.096	3.02 ± 0.055
MENIKKSIDSKTPEEVE [ISW2]	2.92 ± 0.17	3.09 ± 0.23	3.13 ± 0.089	3.23 ± 0.11
ISHIEKRIESLQKDLQR [SMC1]	1.86 ± 0.065	2.48 ± 0.077	1.75 ± 0.09	1.85 ± 0.066
SEGISEATREVFGISKT [ITC1]	–	3.42 ± 0.16	–	3.28 ± 0.2
LTNILRMMGCVKKQKSA [FAS2]	1.91 ± 0.068	2.1 ± 0.078	1.81 ± 0.12	1.35 ± 0.066
ENEFVVLLDARDIEKIT [CDC53]	–	2.98 ± 0.17	–	3.08 ± 0.14
IALRNGQSSVKHEDFVE [RPT5]	2.89 ± 0.19	–	3.23 ± 0.14	3.41 ± 0.16
FGSKPTGATSLFGSSNN [YGL172W/NUP49]	3.39 ± 0.11	3.59 ± 0.11	3.54 ± 0.044	3.64 ± 0.1
QALEKIGIVEISPKGGR [RPS19A]	2.46 ± 0.15	2.74 ± 0.18	2.2 ± 0.13	2.56 ± 0.15
LQHELMISIIKLVTNVV [YML103C/NUP188]	1.54 ± 0.071	1.8 ± 0.048	1.56 ± 0.18	1.57 ± 0.038
HADKDTFSSSISTYIST [POP8]	2.61 ± 0.045	2.58 ± 0.037	2.41 ± 0.048	2.69 ± 0.046
LMRQALAIKDSKKRFAA [RPO21]	1.83 ± 0.062	2.12 ± 0.055	1.98 ± 0.072	1.53 ± 0.049
VDNIVNKYQYSLKQYAG [SRP68]	3.09 ± 0.084	3.08 ± 0.076	2.71 ± 0.068	2.99 ± 0.055
EAIDGNGEIKGENIDAD [SNF2]	3.53 ± 0.14	3.4 ± 0.071	3.48 ± 0.078	3.25 ± 0.12
SNTMYSVRLFSFLDPLN [YJL039C/NUP192]	1.41 ± 0.048	1.48 ± 0.061	1.83 ± 0.063	1.69 ± 0.059
YSVYLIHEIRLNTLNNV [SIR3]	1.85 ± 0.089	1.99 ± 0.067	2.25 ± 0.1	2.34 ± 0.048
PLKTELEANGRSLEKVN [SSN2]	3.19 ± 0.12	3.34 ± 0.08	3.22 ± 0.1	3.55 ± 0.08
KIIEDLRQKHEFLEDFD [SMC2]	2.96 ± 0.097	2.54 ± 0.077	2.6 ± 0.087	2.94 ± 0.17
EQILQWVTEVLGNDIPH [BRR2]	3.07 ± 0.07	3.31 ± 0.063	2.88 ± 0.047	3.19 ± 0.058
ILRKSFDFLMNMPNCDY [RPN2]	1.3 ± 0.099	1.1 ± 0.092	1.23 ± 0.12	1.16 ± 0.041
LTYDRLEFATIRKGAND [PRE9]	–	–	2.62 ± 0.24	–
RVGVKLKFNSTEYRGTL [SMX3]	3.18 ± 0.11	3.17 ± 0.07	2.87 ± 0.09	3.02 ± 0.094
EDIVGALRRRVGPSEQN [REC8]	2.28 ± 0.074	1.58 ± 0.052	2.71 ± 0.12	2.43 ± 0.075
ILQNEHDYWNKIMQSIS [SRB4]	2.14 ± 0.079	2.37 ± 0.062	1.92 ± 0.11	2.35 ± 0.082
IKVLLRQNRRPELGDKF [RET1]	3.15 ± 0.25	3.49 ± 0.18	3.36 ± 0.09	3.41 ± 0.092
